Values joined by “and” are separate entries in the source; they are usually repeats but may differ in a detail not shown here. Identical values can stand only once.
How the values were obtained:
[1] = target: HPV16 E6 PDZ ligand peptide (biotinylated C-terminal peptide of the E6 protein of HPV 16) (human papillomavirus 16) (UniProt P03126); experiment: G assay ELISA, signal over GST-only well
[2] = target: HPV16 E6 PDZ ligand peptide (biotinylated C-terminal peptide of the E6 protein of HPV 16) (human papillomavirus 16) (UniProt P03126); experiment: G assay ELISA, immobilised GST-PDZ, 10 uM biotinylated peptide
[3] = target: GST-Magi3 PDZ domain 1 (human) (UniProt Q5TCQ9); experiment: Matrix/G assay ELISA, E6 peptide titrated on GST-PDZ
[4] = target: GST-VARTUL PDZ domain (number not stated) (human) (UniProt Q14160); experiment: as above
[5] = target: GST-Magi3 PDZ domain 1 (human) (UniProt Q5TCQ9); experiment: G assay ELISA, E6 PL peptide titrated on constant GST-PDZ
[6] = target: GST-VARTUL PDZ domain (number not stated) (human) (UniProt Q14160); experiment: as above
[7] = target: GST-DLG-6 PDZ domain 1, clone #333.1 (human) (UniProt Q96JB8); experiment: G assay ELISA, 10 uM biotin peptide on anti-GST-captured GST-PDZ
[8] = target: GST-Densin PDZ domain 1 (human); experiment: as above
[9] = target: GST-EBP50 PDZ domain 1, clone #341.1 (human); experiment: as above
[10] = target: GST-EBP50 PDZ domain 2, clone #168.2 (human); experiment: as above
[11] = target: GST-HEMBA 1003117 PDZ domain 1, clone #226.2 (human); experiment: as above
[12] = target: GST-KIAA1526 PDZ domain 1, clone #119.1 (human); experiment: as above
[13] = target: GST-KIAA1719 PDZ domain 5 (human); experiment: as above
[14] = target: GST-MAGI 1 PDZ domain 5 (human); experiment: as above
[15] = target: GST-MINT1 PDZ domains 1, 2 (human) (UniProt Q02410); experiment: as above
[16] = target: GST-Magi2 PDZ domain 3 (human) (UniProt Q86UL8); experiment: as above
[17] = target: GST-PAR3 PDZ domain 3, clone #278.1 (human); experiment: as above
[18] = target: GST-PIST PDZ domain 1 (human); experiment: as above
[19] = target: GST-PTPL1 PDZ domain 2 (human); experiment: as above

Chain of GST-Magi2 PDZ domain 3 (human) (Q86UL8 other isoform, or with tags, fused parts or gaps limits assumed, form in doubt): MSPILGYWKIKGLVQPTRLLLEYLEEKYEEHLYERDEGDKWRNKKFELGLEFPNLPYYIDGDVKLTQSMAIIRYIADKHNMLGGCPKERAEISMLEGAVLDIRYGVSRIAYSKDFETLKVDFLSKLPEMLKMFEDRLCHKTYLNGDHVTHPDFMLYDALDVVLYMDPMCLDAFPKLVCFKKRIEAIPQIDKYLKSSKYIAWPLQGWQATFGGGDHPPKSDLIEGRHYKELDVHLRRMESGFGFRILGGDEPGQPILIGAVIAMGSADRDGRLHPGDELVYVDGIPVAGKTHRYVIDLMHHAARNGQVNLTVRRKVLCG
Chain of GST-VARTUL PDZ domain (number not stated) (human) (Q14160 other isoform, or with tags, fused parts or gaps limits assumed): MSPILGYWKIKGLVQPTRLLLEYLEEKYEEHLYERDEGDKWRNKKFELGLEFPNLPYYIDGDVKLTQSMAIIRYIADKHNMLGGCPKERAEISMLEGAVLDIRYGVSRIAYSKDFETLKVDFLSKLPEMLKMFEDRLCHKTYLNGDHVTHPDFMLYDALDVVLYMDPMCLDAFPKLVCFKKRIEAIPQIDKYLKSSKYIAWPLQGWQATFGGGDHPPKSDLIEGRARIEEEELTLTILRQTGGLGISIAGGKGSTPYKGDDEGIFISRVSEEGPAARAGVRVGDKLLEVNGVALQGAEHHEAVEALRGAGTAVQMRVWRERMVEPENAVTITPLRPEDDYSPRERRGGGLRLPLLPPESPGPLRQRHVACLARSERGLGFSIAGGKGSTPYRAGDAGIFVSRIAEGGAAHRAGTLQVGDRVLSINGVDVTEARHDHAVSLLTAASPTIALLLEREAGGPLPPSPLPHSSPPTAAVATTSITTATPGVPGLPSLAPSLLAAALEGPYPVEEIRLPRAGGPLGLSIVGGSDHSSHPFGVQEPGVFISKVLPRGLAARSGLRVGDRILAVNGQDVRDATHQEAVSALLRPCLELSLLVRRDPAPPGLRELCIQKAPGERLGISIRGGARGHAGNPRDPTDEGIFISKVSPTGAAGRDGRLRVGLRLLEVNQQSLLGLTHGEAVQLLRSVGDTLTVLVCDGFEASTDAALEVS
Chain of GST-DLG-6 PDZ domain 1, clone #333.1 (human) (Q96JB8 other isoform, or with tags, fused parts or gaps): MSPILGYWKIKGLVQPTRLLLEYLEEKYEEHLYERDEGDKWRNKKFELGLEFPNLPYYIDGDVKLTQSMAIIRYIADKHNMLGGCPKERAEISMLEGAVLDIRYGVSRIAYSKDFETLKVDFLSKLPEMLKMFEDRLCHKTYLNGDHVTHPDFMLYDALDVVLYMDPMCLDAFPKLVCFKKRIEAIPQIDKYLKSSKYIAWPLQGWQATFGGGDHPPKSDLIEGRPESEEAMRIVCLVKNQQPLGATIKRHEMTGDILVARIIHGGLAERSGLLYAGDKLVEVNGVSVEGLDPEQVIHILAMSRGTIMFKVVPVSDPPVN
Chain of GST-MINT1 PDZ domains 1, 2 (human) (Q02410 other isoform, or with tags, fused parts or gaps limits assumed): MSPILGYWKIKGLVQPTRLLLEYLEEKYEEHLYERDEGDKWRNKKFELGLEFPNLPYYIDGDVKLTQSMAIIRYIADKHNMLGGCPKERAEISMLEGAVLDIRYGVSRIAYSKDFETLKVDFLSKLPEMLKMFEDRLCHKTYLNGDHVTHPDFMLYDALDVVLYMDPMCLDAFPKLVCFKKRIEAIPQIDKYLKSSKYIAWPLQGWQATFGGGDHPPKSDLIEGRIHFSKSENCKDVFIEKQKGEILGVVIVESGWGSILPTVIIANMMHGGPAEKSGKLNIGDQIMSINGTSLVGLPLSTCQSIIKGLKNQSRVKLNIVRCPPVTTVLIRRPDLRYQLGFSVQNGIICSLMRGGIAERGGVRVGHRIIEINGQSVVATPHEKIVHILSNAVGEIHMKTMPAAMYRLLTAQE
Chain of GST-Magi3 PDZ domain 1 (human) (Q5TCQ9 other isoform, or with tags, fused parts or gaps limits assumed, form in doubt): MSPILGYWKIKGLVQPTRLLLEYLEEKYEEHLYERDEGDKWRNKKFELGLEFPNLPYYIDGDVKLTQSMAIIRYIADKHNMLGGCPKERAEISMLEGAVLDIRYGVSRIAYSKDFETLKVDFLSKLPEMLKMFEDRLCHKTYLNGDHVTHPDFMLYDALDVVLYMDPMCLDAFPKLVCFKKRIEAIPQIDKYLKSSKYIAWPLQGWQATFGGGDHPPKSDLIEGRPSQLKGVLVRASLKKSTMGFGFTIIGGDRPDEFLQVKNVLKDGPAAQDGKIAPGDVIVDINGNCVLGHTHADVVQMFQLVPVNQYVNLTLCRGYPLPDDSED

Substance: GST-INADL PDZ domain 3 fusion protein
- OD S/N [1]: 1.86
- Ave OD [2]: 0.485 A450 nm

Substance: GST-Magi2 PDZ domain 5 fusion protein (from UniProt Q86UL8 920-1010)
- OD S/N [1]: 3.93
- Ave OD [2]: 0.651 A450 nm

Substance: GST-NeDLG PDZ domain 1 fusion protein
- OD S/N [1]: 1.98
- Ave OD [2]: 0.516 A450 nm

Substance: GST-PDZK1 PDZ domain 3 fusion protein
- OD S/N [1]: 1.92
- Ave OD [2]: 0.5 A450 nm

Substance: HPV16 E6 C-terminal PDZ ligand peptide (20 mer, biotinylated) (from UniProt P03126 139-158)
- EC50 [3]: 0.31 µM
- EC50 [4]: 0.94 µM
- EC50 [5]: 0.31 µM
- EC50 [6]: 0.94 µM
- Ave OD [7]: 0.349 A450 nm
- OD S/N (ratio to GST only well) [7]: 2.04
- Ave OD [8]: 0.42 A450 nm and 0.35 A450 nm
- OD S/N (ratio to GST only well) [8]: 1.96 and 1.82
- Ave OD [9]: 0.43 A450 nm
- OD S/N (ratio to GST only well) [9]: 1.65
- Ave OD [10]: 0.345 A450 nm
- OD S/N (ratio to GST only well) [10]: 1.99
- Ave OD [11]: 0.36 A450 nm
- OD S/N (ratio to GST only well) [11]: 1.66
- Ave OD [12]: 0.425 A450 nm
- OD S/N (ratio to GST only well) [12]: 1.38
- Ave OD [13]: 0.39 A450 nm
- OD S/N (ratio to GST only well) [13]: 1.81
- Ave OD [14]: 0.432 A450 nm
- OD S/N (ratio to GST only well) [14]: 1.77
- Ave OD [15]: 0.365 A450 nm
- OD S/N (ratio to GST only well) [15]: 1.42
- Ave OD [16]: 0.416 A450 nm and 0.359 A450 nm
- OD S/N (ratio to GST only well) [16]: 1.98 and 1.65
- Ave OD [17]: 0.352 A450 nm
- OD S/N (ratio to GST only well) [17]: 1.8
- Ave OD [18]: 0.386 A450 nm
- OD S/N (ratio to GST only well) [18]: 1.96
- Ave OD [19]: 0.348 A450 nm
- OD S/N (ratio to GST only well) [19]: 1.8
